US9605064B2, “Methods and compositions for treatment of skin disorders” (AbbVie Biotechnology Ltd, priority 2006, dated 2017)
Values joined by “and” are separate entries in the source; they are usually repeats but may differ in a detail not shown here. Identical values can stand only once.

Assays:
[1] = test system: patients with moderate to severe chronic plaque psoriasis; assay: Adverse events, open-label extension of CHAMPION
[2] = test system: patients with moderate to severe psoriasis; settings: in vivo
Method: Laboratory parameters and adverse events were also recorded.

[3] = test system: patients with chronic plaque psoriasis; assay: PGA, 16-week open-label Phase IIIb trial after suboptimal response to ETN, MTX or NB-UVB; format: in vivo, human; settings: week 16
From the text: This 16-week, multicenter, open-label, Phase IIIb trial enrolled patients with chronic plaque psoriasis who were having a suboptimal response to ETN (Physician's Global Assessment [PGA]≧mild with months of therapy, or ≧3 months of therapy and deterioration of efficacy), MTX (PGA≧mild with ≧4 months of therapy), or narrow-band ultraviolet B (NB-UVB) phototherapy (PGA moderate with months of therapy). […] The primary endpoint was the proportion of patients who achieved PGA of clear or minimal at week 16. A secondary endpoint was the proportion achieving ≧1 grade of PGA improvement. Safety was assessed throughout the study. Efficacy analyses were intention to treat, with nonresponder imputation used for missing data. Efficacy and safety results were analyzed overall and for each prior-treatment group.

[4] = test system: patients with severe psoriasis who were non-responders to high-dosage etanercept; assay: DLQI, open-label adalimumab in non-responders to high-dosage etanercept; format: in vivo, human
Method: Details on clinical course and adverse events were recorded, along with measurements of PASI and Dermatology Life Quality Index (DLQI) at baseline and Weeks 2, 4, 8, and 12.
At each clinical visit PASI, DLQI, and percentage body surface area (% BSA) affected were assessed and recorded. In addition, patients received medical assessments together with monitoring laboratory investigations (FIG. 11).

[5] = test system: patients with severe psoriasis who were non-responders to high-dosage etanercept; assay: ESR and CRP, open-label adalimumab in non-responders to high-dosage etanercept; format: in vivo, human; settings: Week 12; individual patients 1-5 (c1-c5); weekly adalimumab
From the text: This was an open-label prospective evaluation of adalimumab (HUMIRA®, Abbott Laboratories, Abbott Park, Ill., USA). Patients who were non-responders to etanercept were recruited from the Severe Psoriasis Clinic at St John's Institute of Dermatology in London. […] Inclusion criteria included male and female patients more than 18 years of age with plaque psoriasis (Table 98). The study was approved by St Thomas' Research Ethics Committee, and informed consent was obtained from all participants.

[6] = test system: patients with moderate to severe chronic plaque psoriasis; assay: PASI response, open-label extension of CHAMPION (methotrexate to adalimumab transition); format: in vivo, human
[7] = test system: patients with moderate to severe chronic plaque psoriasis; assay: Adverse events, 120-week open-label extension study; settings: 40 mg eow; for Hypercholesterolemia / Increased triglycerides: non-fasting
Method: Inclusion criteria included: moderate to severe chronic plaque psoriasis: ≧1 year and affected BSA: ≧5%. Exclusion criteria included prior TNF-antagonist therapy.
PASI responses and PGA scores were analyzed as observed. […] Thus, patients whose dosages increased were counted as non-responders from the time of dosage escalation. Adverse events were collected throughout the 120-week period.

[8] = through Week 24 of the OLE (N = 95), AEs occurring ≧5% of patients
[9] = through Week 24 of the OLE (N = 95), MTX patients transitioned to adalimumab 40 mg eow
[10] = methotrexate-treated patients after 12 weeks of adalimumab therapy
[11] = methotrexate-treated patients after 24 weeks of adalimumab therapy

Substance: Adalimumab: a human anti-TNF mAb, described in U.S. Pat. No. 6,090,382 as D2E7 (HUMIRA, Abbott Laboratories)
- rebound ([1]; first 24 weeks of the OLE): No cases of rebound were observed
- Injection-site reaction, Percentage of Patients [1, 8]: 5%
- Nasopharyngitis, Percentage of Patients [1, 8]: 6%
- AEs leading to withdrawal, Percentage of Patients [1, 9]: 1%
- Any AE, Percentage of Patients [1, 9]: 47%
- Any malignancy, Percentage of Patients [1, 9]: 0%
- Rebound psoriasis, Percentage of Patients [1, 9]: 0%
- Serious AE, Percentage of Patients [1, 9]: 5%
- Infectious AEs, Patients (%) [2]: 18%
- Serious infectious AE, Patients (%) [2]: 1%
- patients with serious infections [2]: 0.9%
- ≧1 grade improvement in PGA ([3]; all patients): 75.0%
- PGA of clear or minimal ([3]; prior ETN group): 48.8%
- ≧1 grade improvement in PGA ([3]; prior ETN group): 72.0%
- PGA of clear or minimal ([3]; prior MTX group): 61.0%
- ≧1 grade improvement in PGA ([3]; prior MTX group): 78.0%
- PGA of clear or minimal ([3]; prior NB-UVB group): 48.3%
- ≧1 grade improvement in PGA ([3]; prior NB-UVB group): 79.3%
- DLQI ([4]; Week 2, individual patients 1-5 (c1-c5), weekly adalimumab): 17 and 10 and 30 and 9 and 5
- DLQI ([4]; Week 4, individual patients 1-5 (c1-c5), weekly adalimumab): 16 and 5 and 28 and 4 and 7
- DLQI ([4]; Week 8, individual patients 1-5 (c1-c5), weekly adalimumab): 15 and 3 and 0 and 9
- DLQI ([4]; Week 12, individual patients 1-5 (c1-c5), weekly adalimumab): 6 (2×) and 1 and 26 and 2
- mean decrease in DLQI score ([4]; five patients, Week 12): 8.8
- % Improvement in DLQI from baseline to Week 12 ([4]; individual patients 1-5 (c1-c5), weekly adalimumab): 68% and 91% and 13% and 82% and 57%
- CRP [5]: 7 mg/L and < 5 mg/L (3×) and recorded/<5 mg/L
- ESR [5]: 13 mm/hr and 12 mm/hr (2×) and 2 mm/hr
- PASI 75 response rate [6, 10]: 75%
- PASI 90 response rate [6, 10]: 47%
- PASI 100 response rate [6, 10]: 18%
- PASI 75 response rate [6, 11]: 73%
- PASI 90 response rate [6, 11]: 53%
- PASI 100 response rate [6, 11]: 32%
- cases of tuberculosis, demyelinating disorder, lupus-like syndrome, lymphoma, or congestive heart failure ([7]; 120-week period): No cases
- AEs leading to withdrawal, patients ([7]; Week 0-24 (n = 92)): 4 (4.3) n (%)
- Any AE, patients ([7]; Week 0-24 (n = 92)): 69 (75.0) n (%)
- Diarrhea ([7]; Week 0-24 (n = 92)): 5 (5.4) n (%)
- Headache ([7]; Week 0-24 (n = 92)): 7 (7.6) n (%)
- Infectious AEs, patients ([7]; Week 0-24 (n = 92)): 28 (30.4) n (%)
- Malignant AEs, patients ([7]; Week 0-24 (n = 92)): 1 (1.1) n (%)
- Nasopharyngitis ([7]; Week 0-24 (n = 92)): 9 (9.8) n (%)
- Serious AEs, patients ([7]; Week 0-24 (n = 92)): 2 (2.2) n (%)
- Sinusitis ([7]; Week 0-24 (n = 92)): 1 (1.1) n (%)
- Hypercholesterolemia ([7]; Week 0-24 (n = 92)): 4 (4.3) n (%)
- Increased triglycerides ([7]; Week 0-24 (n = 92)): 7 (7.6) n (%)
- AEs leading to withdrawal, patients ([7]; Week 25-48 (n = 78)): 0 (0.0) n (%)
- Any AE, patients ([7]; Week 25-48 (n = 78)): 33 (42.3) n (%)
- Diarrhea ([7]; Week 25-48 (n = 78)): 1 (1.3) n (%)
- Headache ([7]; Week 25-48 (n = 78)): 0 (0.0) n (%)
- Malignant AEs, patients ([7]; Week 25-48 (n = 78)): 0 (0.0) n (%)
- Nasopharyngitis ([7]; Week 25-48 (n = 78)): 5 (6.4) n (%)
- Serious AEs, patients ([7]; Week 25-48 (n = 78)): 0 (0.0) n (%)
- Sinusitis ([7]; Week 25-48 (n = 78)): 1 (1.3) n (%)
- Hypercholesterolemia ([7]; Week 25-48 (n = 78)): 0 (0.0) n (%)
- Increased triglycerides ([7]; Week 25-48 (n = 78)): 1 (1.3) n (%)
- AEs leading to withdrawal, patients ([7]; Week 49-72 (n = 62)): 0 (0.0) n (%)
- Any AE, patients ([7]; Week 49-72 (n = 62)): 28 (45.2) n (%)
- Diarrhea ([7]; Week 49-72 (n = 62)): 1 (1.6) n (%)
- Headache ([7]; Week 49-72 (n = 62)): 0 (0.0) n (%)
- Malignant AEs, patients ([7]; Week 49-72 (n = 62)): 0 (0.0) n (%)
- Nasopharyngitis ([7]; Week 49-72 (n = 62)): 1 (1.6) n (%)
- Serious AEs, patients ([7]; Week 49-72 (n = 62)): 0 (0.0) n (%)
- Sinusitis ([7]; Week 49-72 (n = 62)): 1 (1.6) n (%)
- Hypercholesterolemia ([7]; Week 49-72 (n = 62)): 1 (1.6) n (%)
- Increased triglycerides ([7]; Week 49-72 (n = 62)): 1 (1.6) n (%)
- AEs leading to withdrawal, patients ([7]; Week 73-96 (n = 55)): 0 (0.0) n (%)
- Any AE, patients ([7]; Week 73-96 (n = 55)): 27 (49.1) n (%)
- Diarrhea ([7]; Week 73-96 (n = 55)): 0 (0.0) n (%)
- Headache ([7]; Week 73-96 (n = 55)): 0 (0.0) n (%)
- Malignant AEs, patients ([7]; Week 73-96 (n = 55)): 0 (0.0) n (%)
- Nasopharyngitis ([7]; Week 73-96 (n = 55)): 3 (5.5) n (%)
- Serious AEs, patients ([7]; Week 73-96 (n = 55)): 0 (0.0) n (%)
- Sinusitis ([7]; Week 73-96 (n = 55)): 3 (5.5) n (%)
- Hypercholesterolemia ([7]; Week 73-96 (n = 55)): 3 (5.5) n (%)
- Increased triglycerides ([7]; Week 73-96 (n = 55)): 1 (1.8) n (%)
- AEs leading to withdrawal, patients ([7]; Week 97-120 (n = 53)): 0 (0.0) n (%)
- Any AE, patients ([7]; Week 97-120 (n = 53)): 25 (47.2) n (%)
- Diarrhea ([7]; Week 97-120 (n = 53)): 3 (5.7) n (%)
- Headache ([7]; Week 97-120 (n = 53)): 0 (0.0) n (%)
- Malignant AEs, patients ([7]; Week 97-120 (n = 53)): 0 (0.0) n (%)
- Nasopharyngitis ([7]; Week 97-120 (n = 53)): 2 (3.8) n (%)
- Serious AEs, patients ([7]; Week 97-120 (n = 53)): 1 (1.9) n (%)
- Sinusitis ([7]; Week 97-120 (n = 53)): 1 (1-9) n (%)
- Hypercholesterolemia ([7]; Week 97-120 (n = 53)): 1 (1.9) n (%)
- Increased triglycerides ([7]; Week 97-120 (n = 53)): 0 (0.0) n (%)
